Test results reported in the supplement of paper PMC10724198.
± gives the standard deviation of the averaged measurements.

How the values were obtained:
[1] = test system: Saccharomyces cerevisiae; assay: protein stability index of tFT-peptide fusion in wild type (PSI (0-1 scale)); higher = more stable (slower turnover); settings: genetic background: wild type
Experimental: (§1)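 MPS profiling in S. cerevisiae of two library types built from selected 12-aa C-degron peptides (IN1, IN2, LN1, LN3, VN2, R1-R5, W1-W3, Atg1 and Rpa12 C-termini): saturation mutagenesis libraries and C-terminal +1 capping libraries (13 aa). Each peptide is fused to the C-terminus of a sfGFP-mCherry timer, after a GGGS linker. Cells are FACS-sorted into 8 mCherry/sfGFP bins and sequenced. PSI runs from 0 (unstable) to 1 (stable), measured once in wild type and in the das1Δ or doa10Δ background.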

[2] = test system: Saccharomyces cerevisiae; assay: protein stability index of tFT-peptide fusion in deletion strain of DAS1 (PSI (0-1 scale)); higher = more stable (slower turnover)
Experimental: as §1

[3] = test system: Saccharomyces cerevisiae; assay: protein stability index of tFT-peptide fusion (C-terminal peptide) (PSI (0-1 scale)); higher = more stable (slower turnover); settings: temperature: 30 C
Experimental: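 MPS profiling in S. cerevisiae of the yeast C-terminome library: the last 12 aa of each annotated ORF are fused to the C-terminus of a sfGFP-mCherry timer, after a GGGS linker. Cells are FACS-sorted into 8 mCherry/sfGFP bins and deep-sequenced. PSI runs from 0 (unstable) to 1 (stable); wild type and das1Δ backgrounds, two technical replicates each.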

[4] = genetic background: das1 deletion
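Throughout, for protein stability index of tFT-peptide fusion in deletion strain of DAS1: PSI is a weighted mean of each variant's read distribution over the sorted stability bins, computed only for variants having over 10 reads in total.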
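Throughout, for protein stability index of tFT-peptide fusion in wild type: PSI derived as read-weighted mean over the 8 sorting bins, only variants exceeding 10 total reads kept, mCherry placed adjacent to the peptide and sfGFP distal.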

LNILRQKMNHQN
protein stability index [1]: 0.121
protein stability index [2]: 0.622

RHIQPLPVQFLN
protein stability index [1]: 0.167
protein stability index [2]: 0.588

LVVYLSCVALIN
protein stability index [1]: 0.0158
protein stability index [2]: 0.0501

VRGADGGWRLVG
protein stability index [1]: 0.438
protein stability index [2]: 0.685

PSLVASFWRVVG
protein stability index [1]: 0.137
protein stability index [2]: 0.686

VRGAVGGWRGVG
protein stability index [1]: 0.602
protein stability index [2]: 0.673

CVVYLSCVACIN
protein stability index [1]: 0.0137
protein stability index [2]: 0.0323

ARWRVGPWRGAS
protein stability index [1]: 0.577
protein stability index [2]: 0.68

VFGAVGGWRLVG
protein stability index [1]: 0.134
protein stability index [2]: 0.698

PSLAASDWRVVG
protein stability index [1]: 0.627
protein stability index [2]: 0.68

CTSCGYKFRCNN
protein stability index [1]: 0.487
protein stability index [2]: 0.695

RLIQPLPVQFLNQ
protein stability index [1]: 0.65
protein stability index [2]: 0.673

DRWRVGLWRGAS
protein stability index [1]: 0.413
protein stability index [2]: 0.657

LPILRQKMNHQN
protein stability index [1]: 0.125
protein stability index [2]: 0.683

KKHKKGQKQKIT
protein stability index [1]: 0.263
protein stability index [2]: 0.598

LKILRQVMNHQN
protein stability index [1]: 0.315
protein stability index [2]: 0.663

PDKRNHLIKLLNP
protein stability index [1]: 0.663
protein stability index [2]: 0.672

ARWRVGLWRGASS
protein stability index [1]: 0.593
protein stability index [2]: 0.688

RLIQALPVQFLN
protein stability index [1]: 0.0525
protein stability index [2]: 0.683

PLIQPLPVQFLN
protein stability index [1]: 0.0682
protein stability index [2]: 0.604

RLIQPLPVQFLNE
protein stability index [1]: 0.659
protein stability index [2]: 0.676

LKILRCKMNHQN
protein stability index [1]: 0.17
protein stability index [2]: 0.625

FSMRWTFRYWVNR
protein stability index [1]: 0.559
protein stability index [2]: 0.562

KKHKKGQKNKIN
protein stability index [1]: 0.096
protein stability index [2]: 0.596

PDKRNHLIRLLN
protein stability index [1]: 0.144
protein stability index [2]: 0.614

LKIMRQKMNHQN
protein stability index [1]: 0.23
protein stability index [2]: 0.664

PSLAASFWRVVGS
protein stability index [1]: 0.234
protein stability index [2]: 0.697

PDKRNHLIKLLG
protein stability index [1]: 0.238
protein stability index [2]: 0.614

CTSCGYKFRTDN
protein stability index [1]: 0.65
protein stability index [2]: 0.653

LAVYLSCVACIN
protein stability index [1]: 0.0214
protein stability index [2]: 0.0886

PDKMNHLIKLLN
protein stability index [1]: 0.111
protein stability index [2]: 0.614

VRKAVGGWRLVG
protein stability index [1]: 0.18
protein stability index [2]: 0.665

AHQKEILHSVSN [YML6 C-terminal 12 aa]
protein stability index [3, 4]: 0.695 ± 0.016
protein stability index ([3]; genetic background: wild type): 0.726 ± 0.034

TALLENDANLIS [ERV15 C-terminal 12 aa]
protein stability index [3, 4]: 0.703 ± 0.019
protein stability index ([3]; genetic background: wild type): 0.703 ± 0.021

HSITEGSYIYIK [YOR062C C-terminal 12 aa]
protein stability index [3, 4]: 0.687 ± 0.062
protein stability index ([3]; genetic background: wild type): 0.676 ± 0.05

MDPMSPLNKDVS [YMR196W C-terminal 12 aa]
protein stability index [3, 4]: 0.692 ± 0.0081
protein stability index ([3]; genetic background: wild type): 0.73 ± 0.05

CLSIIGFLKTKV [YOR015W C-terminal 12 aa]
protein stability index [3, 4]: 0.7002 ± 0.0043
protein stability index ([3]; genetic background: wild type): 0.622 ± 0.023

FSGDMSFTVYQL [POA1 C-terminal 12 aa]
protein stability index [3, 4]: 0.741 ± 0.01
protein stability index ([3]; genetic background: wild type): 0.699 ± 0.041

ILSWYFLETVAV [YMR254C C-terminal 12 aa]
protein stability index [3, 4]: 0.317 ± 0.024
protein stability index ([3]; genetic background: wild type): 0.34 ± 0.018

SSTGTPEHDQDT [EUC1 C-terminal 12 aa]
protein stability index [3, 4]: 0.69 ± 0.0083
protein stability index ([3]; genetic background: wild type): 0.682 ± 0.025

ETSITNDNESQQ [PPZ1 C-terminal 12 aa]
protein stability index [3, 4]: 0.695 ± 0.0074
protein stability index ([3]; genetic background: wild type): 0.701 ± 0.04

EIIRVGPQESII [MRP49 C-terminal 12 aa]
protein stability index [3, 4]: 0.723 ± 0.019
protein stability index ([3]; genetic background: wild type): 0.749 ± 0.034

KQEQESLGSNSK [DAD3 C-terminal 12 aa]
protein stability index [3, 4]: 0.666 ± 0.012
protein stability index ([3]; genetic background: wild type): 0.661 ± 0.035
